We go through 10 molecules from patent publication US20110256132A1 (published 2011).

Experiment [1] concerns the target T1, mature myostatin (recombinant, dimeric) (mouse polyprotein used for in-house …, UniProt O08689 268-376).
T1 construct: also called GDF-8; recombinant myostatin
T1 sequence: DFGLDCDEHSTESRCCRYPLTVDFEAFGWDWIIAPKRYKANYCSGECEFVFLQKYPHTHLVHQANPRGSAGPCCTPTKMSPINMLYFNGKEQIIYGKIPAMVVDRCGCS
The experiment can be described thus: BIAcore, medium density myostatin surface, antibody analyte, 1:1 model (poor fits). How it is done: (§1) Purified H0L0, H1L2 and H2L2 bound recombinant myostatin by BIAcore™ Recombinant myostatin was immobilised at three different densities (low, medium and high, to give R-max values of approximately 35, 120 and 350 RU's respectively) onto a BIAcore™ chip. Antibodies were passed over at 256, 64, 16, 4 and 1 nM. 0 nM antibody was used for double referencing and data was fitted to the 1:1 model.

For experiment [2], the target named is T1, mature myostatin (recombinant, dimeric). The experiment can be described thus: myostatin binding ELISA with purified antibody, 10 ng/well recombinant myostatin coated, anti-human kappa HRP, A490 (Examples 4.1, 4.2). How it is done:
(§2) The myostatin binding ELISA was carried out approximately according to this protocol. A 96-well ELISA plate was coated at 4° C. overnight with 10 ng/well recombinant myostatin. This plate was then washed 3-times in wash buffer (PBS, 0.1% Tween-20). The wells were blocked for 1 hour at room temperature with block solution (PBS, 0.1% Tween-20+1% bovine serum albumin [BSA]), before washing 3-times in wash buffer. Antibodies were then titrated out to a suitable concentration range (approximately 100 to 0.001 μg/ml), added to the plate and incubated for 1 hour at room temperature. The plate was then washed 3-times in wash buffer. An anti-mouse IgG HRP-conjugated antibody (P0260 by Dako, this reagent was used according to the manufacturer's instructions) was used to detect binding of mouse antibodies, such as 10B3. An anti-human kappa light chain HRP-conjugated antibody (A7164 by Sigma Aldridge, this reagent was used according to the manufacturer's instructions) was used to detect binding of humanized or chimeric antibodies, such as 10B3 chimera or H0L0. The plate was then washed 3-times in wash buffer and developed with an OPD substrate (from Sigma, used according to the manufacturer's instructions) and read at 490 nm on a plate reader.

For experiment [3] the target is unchanged. The experiment can be described thus: cell-based or functional assay.
The target is the same in experiment [4]. As to the kind of experiment: BIAcore, low density myostatin surface, methods as in 4.3.
The target is the same in experiment [5]. As to the kind of experiment: BIAcore, high density myostatin surface, antibody analyte, 1:1 model (poor fits). How it is done:
as §1

Experiment [6] has the same target. The experiment can be described thus: cell-based or functional assay. The source holds these as a separate data set.
Experiment [7] shares this target. As to the kind of experiment: myostatin binding ELISA with purified antibody, 10 ng/well recombinant myostatin coated, anti-human kappa HRP, A490 (Examples 4.1, 4.2); the text says the CHOK1 material was hard to quantify. How it is done:
as §2

The target is the same in experiment [8]. As to the kind of experiment: BIAcore, low density myostatin surface, antibody analyte, 1:1 model. How it is done:
as §1

Experiment [9] shares this target. As to the kind of experiment: cell-based or functional assay. This is another data set of the same source.
For experiment [10] the target is unchanged. The experiment can be described thus: ActRIIb receptor binding assay (Example 2.5), mean IC50. How it is done: Recombinant soluble ActRIIb (R&D Systems 339-RBB) was coated in wells of an ELISA plate at 1 μg/ml in carbonate buffer overnight at 4° C. Plates were blocked (see Block solution above at 2.3) and washed following standard ELISA protocols. In parallel, 2 nM biotinylated myostatin (in-house, as described in 1.1, biotinylated material) was pre-incubated with an antibody dilution series consisting of 10B3, 10B3C, and a negative control (IgG1 isotype control) for 2 hours at 37° C. The biotinylated myostatin:antibody reactions were then added to the ActRIIb coated plate for 1 hour at 37° C. Standard wash procedures were followed prior to addition of 1:1000 diluted streptavidin-HRP conjugate (Dako P0397) and a further 37° C. incubation for 1 hour. Plates were again washed and assayed at absorbance 490 nm following OPD substrate (Sigma) and acid stop solution treatment Inhibition curves and IC50 values for the inhibition of myostatin activity are shown in FIG. 5 and Table 8 respectively.
H2L2 C91S_G55S F100G_Y, the developability enhanced molecule with the highest apparent potency in the A204 assay was Fc-disabled (by making the following substitutions, using EU numbering system: Leu 235 Ala; and Gly 237 Ala) as exemplified in SEQ ID NO: 99.

For experiment [11] the target is unchanged. The experiment can be described thus: cell-based or functional assay. This is another data set of the same source.
The target is the same in experiment [12]. The experiment can be described thus: myostatin binding ELISA, 10 ng/well recombinant myostatin coated, CHOK1 supernatants, anti-human kappa HRP, OPD, A490 (Examples 4.1, 4.2). As to the method: as §2
Experiment [13] has the same target. The experiment can be described thus: myostatin capture ELISA: plate coated with polyclonal anti-myostatin AF788, myostatin 1 µg/ml captured, purified antibody titrated, anti-human kappa HRP, A490 (Example 6.7). How it is done: (§3) A 96-well ELISA plate was coated at 4° C. overnight with 2.5 μg/ml polyclonal Antibody to Myostatin (R&D Systems AF788). This plate was then washed 3-times in wash buffer (PBS, 0.1% Tween-20) and blocked for 1 hour at room temperature with block solution (PBS, 0.1% Tween-20+1% bovine serum albumin [BSA]). Then, myostatin was added at 1 μg/ml in block buffer during 1 hour followed by 3-times in wash buffer. Antibodies were then titrated out to a suitable concentration range (approximately 10 to 0.01 μg/ml), added to the plate and incubated for 1 hour at room temperature. The plate was then washed 3-times in wash buffer. An anti-human kappa light chain HRP-conjugated antibody (Sigma A7164, used according to the manufacturer's instructions) was used to detect binding of humanized or chimeric antibodies, such as 10B3 chimera (HcLc) or H0L0. The plate was then washed 3-times in wash buffer and developed with an OPD substrate (according to the manufacturer's instructions) and read at 490 nm on a plate reader.
The experiment is illustrated in FIG. 21 where H2L2-C91S, H0L0, HcLc (10B3 chimera) and a negative control monoclonal antibody were used as control antibodies. All eleven CDRH3 variant antibodies bound to recombinant myostatin in this ELISA. […]

Experiment [14] shares this target. As to the kind of experiment: cell-based or functional assay. The source holds these as a separate data set.
The target is the same in experiment [15]. The experiment can be described thus: competition ELISA, myostatin captured by polyclonal antibody, competitor 10B3. How it is done:
as §3
The protocol set out in 6.7 was used with the addition of 10B3 (final concentration of […]) to each well and mixed with the antibodies titrated out to a suitable concentration range (approximately 10 to 0.01 μg/ml). An anti-mouse HRP-conjugated antibody (DAKO P0260, used according to the manufacturer's instructions) was used to detect binding of the 10B3 antibody.

Experiment [16] has the same target. As to the kind of experiment: competition ELISA, directly coated myostatin, competitor 10B3. How it is done: as §3
The protocol set out in 6.7 was used but the plates were initially coated at 4° C. overnight with 0.2 μg/ml of myostatin (recombinant in-house, see 1.1 above). 10B3 (final concentration of 0.3 μg/ml) was added into each well and mixed with antibodies titrated out to a suitable concentration range (approximately 10 to 0.01 μg/ml). An anti-mouse HRP-conjugated antibody (DAKO P0260, used according to the manufacturer's instructions) was used to detect binding of the 10B3 antibody.

Experiment [17] has the same target. As to the kind of experiment: competition ELISA, biotinylated myostatin on streptavidin, competitor 10B3. How it is done: as §3
The protocol set out in 6.7 was used but the plates were initially coated at 4° C. overnight with 5 μg/ml of streptavidin. Biotinylated myostatin was added at 0.3 μg/ml block buffer during 1 hour followed by 3-times in wash buffer. 10B3 (final concentration of 0.2 μg/ml) was added into each well and mixed with antibodies titrated out to a suitable concentration range (approximately 10 to 0.01 μg/ml). An anti-mouse HRP-conjugated antibody (DAKO P0260, used according to the manufacturer's instructions) was used to detect binding of the 10B3 antibody.

Positions count from the first letter of the chain named. Where two headings read alike, the source gives them in different places.

B1: H0L0 (antibody, human IgG1, kappa)
heavy: not shown
light: DIQMTQSPSSLSASVGDRVTITCKASQDINSYLSWFQQKPGKAPKSLIYRANRLVDGVPSKFSGSGSGTDFTLTISSLQPEDFATYYCLQCDEFPLTFGQGTKLEIKRTVAAPSVFIFPPSDEQLKSGTASVVCLLNNFYPREAKVQWKVDNALQSGNSQESVTEQDSKDSTYSLSSTLTLSKADYEKHKVYACEVTHQGLSSPVTKSFNRGEC
notes: Humanised, human IgG1 wild type/kappa
With B1, the equilibrium dissociation constant (Kd) in experiment [1] came out at 3.61 nM; in [4], 22.7 nM; in experiment [5], 2.31 nM; in experiment [8] it was 8.26 nM. The koff in [1] stood at 0.00093 s⁻¹; in experiment [5] it was 0.000338 s⁻¹; in experiment [8], 0.00662 s⁻¹. In addition, the on-rate (kon) in experiment [1] was 258000 M⁻¹ s⁻¹; in [5], 146000 M⁻¹ s⁻¹; in experiment [8], 801000 M⁻¹ s⁻¹. In addition, the “EC50 (read off the curve)” value in experiment [2] is around 0.1 µg/mL; in experiment [7] it was around 0.3 µg/mL. For the same molecule, the figures for the “Mean IC50, A204 in vitro activity assay” value in [3] and in [6] were 10.2 nM and 10.1 nM, respectively.

B2: H2L2 C91S_G55S F100G_Y (antibody)
chain 1: not shown
chain 2: B1 light with F71Y, C91S
As for B2, the “Mean IC50, A204 in vitro activity assay” value in experiment [9] stood at 4.42 nM. For the same molecule, the half-inhibitory concentration (IC50) in experiment [10] is 0.786 nM.

B3: H2L2-C91S_F100G_Y Fc Disabled (antibody, human IgG1, kappa)
heavy: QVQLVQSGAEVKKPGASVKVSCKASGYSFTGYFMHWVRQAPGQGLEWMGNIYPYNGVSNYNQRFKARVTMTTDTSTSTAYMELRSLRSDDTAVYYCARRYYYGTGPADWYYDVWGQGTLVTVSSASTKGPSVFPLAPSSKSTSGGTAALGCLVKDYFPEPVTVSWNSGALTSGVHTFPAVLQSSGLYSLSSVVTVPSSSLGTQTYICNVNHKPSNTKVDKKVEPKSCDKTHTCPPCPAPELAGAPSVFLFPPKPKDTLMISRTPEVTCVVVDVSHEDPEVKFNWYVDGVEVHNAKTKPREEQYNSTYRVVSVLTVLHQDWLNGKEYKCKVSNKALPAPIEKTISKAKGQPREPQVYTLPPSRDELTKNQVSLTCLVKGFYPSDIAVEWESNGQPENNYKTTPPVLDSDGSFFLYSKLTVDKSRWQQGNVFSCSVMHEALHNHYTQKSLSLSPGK
light: B1 light with F71Y, C91S
Take B3: the “Mean IC50, A204 in vitro activity assay” value in experiment [11] came out at 1.24 nM.

B4: H2L0 (antibody, human IgG1, kappa)
heavy: not shown
light: B1 light
notes: as for B1
With B4, the binding result in experiment [12] was “binds”.

B5: H2L2-C91S_F100G_N (antibody, human IgG1, kappa, V domains shown)
VH: QVQLVQSGAEVKKPGASVKVSCKASGYSFTGYFMHWVRQAPGQGLEWMGNIYPYNGVSNYNQRFKARVTMTTDTSTSTAYMELRSLRSDDTAVYYCARRYYYGTGPADWYNDVWGQGTLVTVSS
VL: DIQMTQSPSSLSASVGDRVTITCKASQDINSYLSWFQQKPGKAPKSLIYRANRLVDGVPSKFSGSGSGTDYTLTISSLQPEDFATYYCLQSDEFPLTFGQGTKLEIKR
As for B5, in experiment [13], the binding result is recorded as “binds”.

B6: H2L3 (antibody, human IgG1, kappa)
heavy: not shown
light: B1 light with Q100A
notes: as for B1
Regarding B6, the binding result in experiment [12] is given as “binds”.

B7: H2L2 C91S_G55S F100G_Y-Fc disabled (antibody, human IgG1, kappa)
heavy: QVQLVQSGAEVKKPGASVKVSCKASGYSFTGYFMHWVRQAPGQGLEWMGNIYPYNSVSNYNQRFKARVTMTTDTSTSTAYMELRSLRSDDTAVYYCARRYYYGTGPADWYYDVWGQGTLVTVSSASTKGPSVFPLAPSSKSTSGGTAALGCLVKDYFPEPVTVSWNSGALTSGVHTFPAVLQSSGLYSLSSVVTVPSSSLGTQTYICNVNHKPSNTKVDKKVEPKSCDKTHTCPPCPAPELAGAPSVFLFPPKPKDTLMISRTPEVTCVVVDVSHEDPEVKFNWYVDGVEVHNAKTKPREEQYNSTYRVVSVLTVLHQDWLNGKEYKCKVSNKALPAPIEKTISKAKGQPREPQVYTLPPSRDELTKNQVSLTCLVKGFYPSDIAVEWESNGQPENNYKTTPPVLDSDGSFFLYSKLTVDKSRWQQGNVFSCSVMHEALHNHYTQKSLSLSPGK
light: B1 light with F71Y, C91S
As to B7, the IC50 in [10] amounted to 0.518 nM.

B8: H2L2-C91S_F100G_Y (antibody, human IgG1, kappa)
heavy: not shown
light: B1 light with F71Y, C91S
notes: Fc not disabled
With B8, the “Mean IC50, A204 in vitro activity assay (5 nM myostatin)” value in experiment [14] came out at 3.64 nM. Further, the results for the “ranking order top (1) to bottom (5), myostatin competition ELISA” value in experiment [15], in experiment [16] and in [17] were 4, 2 and 2, respectively. For the same molecule, in experiment [9], the “Mean IC50, A204 in vitro activity assay” value was 11.1 nM.

B9: H2L1 (antibody, human IgG1, kappa)
heavy: not shown
light: B1 light with G16R
notes: as for B1
As for B9, the binding result in [12] is given as “binds”.

B10: H2L2-C91S_W100E_F (antibody, human IgG1, kappa, V domains shown)
VH: B5 VH with W109F, N111F
VL: B5 VL
In the case of B10, the binding result in experiment [13] is recorded as “binds”.
